Results on 1 substance are retold here after patent publication US20090304581A1.

The assay deals with CD20 on Daudi cells (human) (UniProt P11836). In words: live-cell radioimmunoreactivity assay on Daudi cells, cell pellet cpm over total cpm.
UniProt P11836, sequence (P11836 whole entry): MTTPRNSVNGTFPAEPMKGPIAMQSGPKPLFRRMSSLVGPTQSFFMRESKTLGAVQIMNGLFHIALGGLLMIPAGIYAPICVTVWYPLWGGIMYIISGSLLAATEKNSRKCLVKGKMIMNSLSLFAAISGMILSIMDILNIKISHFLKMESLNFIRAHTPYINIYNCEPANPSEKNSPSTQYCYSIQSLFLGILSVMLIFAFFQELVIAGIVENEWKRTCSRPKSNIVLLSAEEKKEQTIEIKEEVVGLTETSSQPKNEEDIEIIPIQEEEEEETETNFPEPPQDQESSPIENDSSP

For the substance SWNT-rituximab-111In*DOTA (antibody), the maximum binding (immunoreactive fraction) worked out at 29%.
